Data published in the nanobody polyreactivity screen of Harvey et al. (2022).

Assay: yeast display, Sf9 membrane polyspecificity reagent, FACS + sequencing; frameworks hold sequencing errors
Summary of the method: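 A synthetic nanobody library was expressed on Saccharomyces cerevisiae BJ5465 by galactose induction for 36–48 hours. The library was stained for 1 hour at 4 °C with 10% biotinylated, detergent-solubilized Sf9 membrane reagent and enriched with streptavidin microbeads before FACS. Low and high (top ~1%) gates were set on anti-HA fluorescence for expression and streptavidin fluorescence for reagent binding, and each polyreactivity label reflects the gate of origin.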

Sequence	polyreactivity (PSR sort gate)
QVQLVESGGGLDQAGGSLRLSCAASGIIFVKYTMGWYRQAPGTERELVAAISRSGGSTYYADSVKGRFTISRDNAKNTVYLQMNSLKPEDTAVYYCNAVSRKVYPGPMDYWGQGTQVTVSS	high polyreactivity
QDQLVESGGGLVQAGGSLRLICAASGRTFNRYGMGWNRQATGKERELVASITSGGSTNYADSVKGRFTISRDNAKNNVYLQMNSLKLEDTAVYYCAKRSIGRYPRTYDYWGQGTQVTVSS	low polyreactivity
QVQLVESGGGLVQAGGSLRLSCAASGRIFKYYAMGWYRQAPGKERELVAAITSSGVSTYADSVKGRFTISRDNAKNTVYLQMNSLKPEDTAVSYCNAADERSQGWVGCDHWGQCTQVTVSS	low polyreactivity
QVQLVESGGGLVQAGGSLRLSCAASGSNFGWYTMGWYRQAPGKERELVAAITSRGTRTSYADSVKGRFTISRDYAKNTVYLQMNSLKPEDTAVYYCAARVFRGLGEYYWGQGTQVTVSS	high polyreactivity
QVQLVESGGGLVQAGGSLRLSCAASGSIFVLYTMGWYRQAPGKERELVAAISYSGGSTNYADSVKGRFTISRDNAKNTVYLQMNSLKPEDTAVYYCAARASKGHKYWGQGTQVTVSS	high polyreactivity
QVQLVESGGGLVQAGGSLRLSCAASGLIFYLYAMGWYRQAPGKEMELVAAISSGGSTYYADSVKGRFTISRDNAKNTVYLQMISLKPEDTAVYYCNARYYYVSGLQAYYYWGQGTQVTVSS	high polyreactivity
QVQLVESGGGLVQAGGSLRLSCAASGSTFGRYAMGWYRQAPGKERELVAAISPRGGSTYYADSVKGRFTISRDNAKNTVYLQMNSLKPEDTAVYYCATGYPIDLGREFDYWGQGIQVTVSS	high polyreactivity
QVQLVETGGGLVQAGGSLRLSCAASGFIFGYYAMGWYRQAPGKERELVADITSGGSTYYADSVKGRFIISRDNAKNTVYLQMNSLKPEDTAVYYCNKAWELVSQSLYYTEYNYWGQGTQVTVSS	low polyreactivity
QDQLVESGGGLVQAGGSLRLTCAASGSIFSANVMGWYRQAPGKERELVAAIRRGGTTYYADSVKGRFTISRDNSKNTVYLQMNRLNPEDSAVYYCATDGIFGSYLRFEVAYDYWGQGTQVTVSS	low polyreactivity
QVQLVESGGGLVQAGGSLRLSCAASGRTFFYNTMGWYRQAPGKERELVAAISYRGGRTYYADSVKGRFTISRDNAKNTVYLQMNSLKPEDTAVYYCNAYSYGHYYWGQGTQVTVSS	high polyreactivity
QVQLVESGGGLVQAGGSLRLSCAASGFTFYIYAMGWYRQAPGKERELVAAISSGGGRTYYADSVKGRFTISRDNAKNTVYLQMNSLKPEDTAVYYCAARGRAFSYNNYGSDYWGQGTQVTVSS	high polyreactivity
QVQLVESGGGLVQAGGSLRLSCAASGITFSRYAMGWYRQAPGKERELVAAISSGGSTYYADSVKGRFTISRDNAKNTVYLQMNSLIPEDTAVYYCAADGLTGSKYRATGYYWGQGTQVTVSS	high polyreactivity
QVQLVESGGGLVQAGGSLRLSCAASGSTFVPYPMGWYRQAPGKERELVAAISSTGGSTYYADSVKGRFTISRDNAKNTVYLQMNSLKPEDNAVYYCNALAKIRYGQINKGYYRGQGTQVTVSS	high polyreactivity
QVQLVESGGGLVQAGGSLRLSCAASGFTFGPNTMGWYRPAPGKERELVAAISARGGRTYYADSVKGRFTISRDNAKNTVYLQMNSLKPEDTAVYYCAAPGYVRTGVTYGGYYWGQGTQVTVSS	high polyreactivity
QVQLVESGGGLVQARGSLRLSCAASGFIFRDNAMGWYRQAPGKERELVAAISKSGGRTYYADSVKGRFTISRDNAKNTVYLQMNSLKPEDTAVYYCAKASRYWSLYYWGQGTQVTVSS	high polyreactivity
QVQLVESVGGLVQAGGSLRLSCAASGGIFGVYAMGWYRQAPGKERELVAAISNSDTSTSYADSVMGRFTISRDIAKNTVYLQMNSVYPEDTAVYYCNADSPSLSGDYWGQGTQVTVSS	low polyreactivity

Sequence	polyreactivity (PSR sort gate)
QVQLVESGGGLVQAGGSLRLSCADSGIIFLEYAMGWYRQAPGKERELVAAISSDDGSSTYYADSVKGRFTISRDNAKNTVYLQMNSLKPEDTAVYYCAAYGGGGYYYDYEYWGQGTQVTVSS	high polyreactivity
QVQLVESGGGLVQAGGSLRLSCAASGITFDHYAMGWYRPAPGKERELVATIRGSGTSTYYADSVKGRFTISRDNAKNTVYLQMHSLKPEDTAVYYCAARGRYRQFNYWGQGTQVTVSS	high polyreactivity
QVQLVESGGGLVQTGGSLRVSCAASGLIFSRSAMGWYRQAPGKVRELVAAISSRGGSTYYADSVKGRFTISRDNAKNTVYLQMKSLIPEDTAVYFCDASRSYVHPVIGYGYWGQGTQVTVSS	high polyreactivity
QVQLVESGGGLVQAGGSLRLSCAASGSTFGANAMGWYRQAPGKERELVATISSGGRTYYADSVKGRFTISRDNAKNTVYLQMNSLKPEDTAVYYCNAGADYTYVYISVYVLYDYWGQGTQVTVSS	low polyreactivity
QVQLVESGGGLDQAGGSLRLSCAASGSTFLYYAMGWYRQAPGKEREFVARITTRVGRTYYADSVKGRFTISRDNAKNTVSLQMNSLKPEDTAVYYCAAVRISRTPRGLYEYWGQGTQVTVSS	high polyreactivity
QVQLVESGGGLVQAGGSLRLSCAASGSIFATNAMGWYRQAPGKERELGASSSSGGGSTYYADSVKGRFTISRDNAKNTVYLQLNSLKPEDTADSYCARRIGPGSRPSWLETWRYPYDYWGQGTQVTVSS	low polyreactivity
QVQLVESGGGLVQAGGSLRISCADSASIFWGYAMGWYREAPGKERELVATIRNRGGSTYYADSVKGRFTISRDNAKYTVYLQMNSLKPEDTAVYYCAAVSYRQYYGWGNYWGQVTQVTVSS	low polyreactivity
QVQHVESGGGLDQAGGSLRLSCAASGFTFVFNAMGWYRQAPGKERELVATITNGGSTYYADSVKGRFTISRDNAKNTVYLQMNSLKPEDTAVYYCAKTWFAYRDYDFWGQGTQVTVSS	high polyreactivity
QVQLVESGGGLVQAGGSLRLSCAASGRTFYTNAMGWYRQAPGKERELVAAISRGGGRTYYADSVKGRFTISRDNAKNTVYLQMNSLKPEDTAVYYCAASPYQGQGREYYYWGQGTQVTVSS	high polyreactivity
QVQLVESGGGLVQAGGSLRLSCAASGITYYRYTMGWYRQAPGKDRELVASINWSGTRTYYADSVKGRFTISRDNAKNTVYLLMNSLKPEDTAVYYCAAKGAQGTSRRWFDYWGQGTQVTVSS	high polyreactivity
QVQLVESAGGFVQAGGSLRLSCAASGSIFTINAMGWYTQAPGKERELVAGIRWRGGSTYYADSVKGRVTISRDNAKNTVYFQMNSLKPEDTAVYYCNTRCLIRKFDYWGQGTQVTVSS	high polyreactivity
QVQLVESGGGLVQAGGSLRLSCAASGGIFRKNAMGWYRQAPGKERELVAAISWDGDNTYADSVKGRFTISRDNAKNTVYLQMNSLKPEDTAVYYCAAETFTDYDYWGQGTQVTVSS	high polyreactivity
QVQLVESGGGLVQAGGCLRLSCAASGSIFDHYVMGWYREAPGKERELVAAISSGDRPNYADSVKGRFTISRDNAKNPVYLQMNSLKPEETAVYYCAAVVHVSPYSYDYWGQGTQVTVSA	low polyreactivity
QVQLVESRWRFVQAGGSLRLSCAASGSIFADYAMGWYRQAPGKERELVAAITFSGGSTYYADSVKGRFTISRDNAKNTVYLQMNSLKPEDTAVYYCAARWRYRYYSWGQGTQVTVSS	high polyreactivity
QVQLVESGGGLVQAGGSLRLSCAASGRTFAYYVMGWYRPAPGKERQLVAAINRSDGSTSYADSVKGRFTISRDNAKNTVYLQMNSLKPEDTAVYYCAKSKPVGPYYYWGQGTQVTVSS	high polyreactivity
QVQLVESGGGLVQAGGSLRLSCAASGSIFNPYDMGWYRQAPGKERELVAAIDWSGGSTYYADSVKGRFTISRDNAKNTVYLQMNSLKPEDTAVYYCNAESYQDTLFGADNDYDYWGQGTLVTVSS	low polyreactivity
